Results as given in US20220048962.

Tested on: MBP-CIRTS-1 (ORF5-TBP6.7-SMG6 Pin nuclease fusion) (synthetic fusion (Grapevine virus A ORF5; Homo sapiens U1A-derived TBP6.7; Homo sapiens SMG6))
Experiment: FP filter
Settings: apparent; text states ~50-fold weaker than on-target

non-targeting TAR-hairpin gRNA ; model RNA substrate (R1)
Kd: 500 nM
